T1: CD32b (FcγRIIB) (UniProt P31994 43-217, limits assumed)
T1 construct: The 'Y' of CD32bY is not explained; also called CD32bY
T1 sequence (looked up): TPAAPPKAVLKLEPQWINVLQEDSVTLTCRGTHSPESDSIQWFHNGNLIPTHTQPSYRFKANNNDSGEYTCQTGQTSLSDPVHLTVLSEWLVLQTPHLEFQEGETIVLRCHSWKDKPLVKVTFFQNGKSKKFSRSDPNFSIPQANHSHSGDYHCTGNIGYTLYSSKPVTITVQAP

T2: CD32a (FcγRIIA), allelic form His131 (UniProt P12318 36-218, limits assumed)
T2 construct: also called CD32aH
T2 sequence (looked up): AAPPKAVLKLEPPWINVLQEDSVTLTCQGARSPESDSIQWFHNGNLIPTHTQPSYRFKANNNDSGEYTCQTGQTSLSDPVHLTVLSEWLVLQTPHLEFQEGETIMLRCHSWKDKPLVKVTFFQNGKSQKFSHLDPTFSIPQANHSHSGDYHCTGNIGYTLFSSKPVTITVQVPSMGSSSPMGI

T3: CD32a (FcγRIIA), allelic form Arg131 (UniProt P12318 36-218, limits assumed)
T3 construct: also called CD32aR
T3 sequence (looked up): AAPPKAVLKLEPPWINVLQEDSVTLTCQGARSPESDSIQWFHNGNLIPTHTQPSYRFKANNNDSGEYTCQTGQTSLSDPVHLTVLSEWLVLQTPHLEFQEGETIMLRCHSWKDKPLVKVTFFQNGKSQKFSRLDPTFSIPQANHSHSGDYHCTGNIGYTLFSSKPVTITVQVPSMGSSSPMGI

B1: v17427 (antibody)
chain 1: QVQLVQSGAEVKKPGASVKVSCKASGYIFTAYTMHWVRQAPGQGLEWMGWIKPNNGLANYAQKFQGRVTMTRDTSISTAYMELSRLRSDDTAVYYCARSEITTEFDYWGQGTLVTVSSASTKGPSVFPLAPSSKSTSGGTAALGCLVKDYFPEPVTVSWNSGALTSGVHTFPAVLQSSGLYSLSSVVTVPSSSLGTQTYICNVNHKPSNTKVDKKVEPKSCDKTHTCPPCPAPELLGGPSVFLFPPKPKDTLMISRTPEVTCVVVDVSHEDPEVKFNWYVDGVEVHNAKTKPREEQYNSTYRVVSVLTVLHQDWLNGKEYKCKVSNKALPAPIEKTISKAKGQPREPQVYVYPPSRDELTKNQVSLTCLVKGFYPSDIAVEWESNGQPENNYKTTPPVLDSDGSFALVSKLTVDKSRWQQGNVFSCSVMHEALHNHYTQKSLSLSPG
chain 2: not shown
chain 3: not shown
B2: v29001 (antibody)
chain 1: QVQLVQSGAEVKKPGASVKVSCKASGYIFTAYTMHWVRQAPGQGLEWMGWIKPNNGLANYAQKFQGRVTMTRDTSISTAYMELSRLRSDDTAVYYCARSEITTEFDYWGQGTLVTVSSASTKGPSVFPLAPSSKSTSGGTAALGCLVKDYFPEPVTVSWNSGALTSGVHTFPAVLQSSGLYSLSSVVTVPSSSLGTQTYICNVNHKPSNTKVDKKVEPKSCDKTHTCPPCPAPELLGGPSVFLFPPKPKDTLMISRTPEVTCVVVDVSHEDPEVKFNWYVDGVEVHNAKTKPREEQYNSTCYRVVSVLTVLHQDWLNGKEYKCKVSNKALPAPIEKTISKAKGQPREPQVYVYPPSRDELTKNQVSLTCLVKGFYPSDIAVEWESNGQPENNYKTTPPVLDSDGSFALVSKLTVDKSRWQQGNVFSCSVMHEALHNHYTQKSLSLSPG
chain 2: QVQLVQSGAEVKKPGASVKVSCKASGYIFTAYTMHWVRQAPGQGLEWMGWIKPNNGLANYAQKFQGRVTMTRDTSISTAYMELSRLRSDDTAVYYCARSEITTEFDYWGQGTLVTVSSASTKGPSVFPLAPSSKSTSGGTAALGCLVKDYFPEPVTVSWNSGALTSGVHTFPAVLQSSGLYSLSSVVTVPSSSLGTQTYICNVNHKPSNTKVDKKVEPKSCDKTHTCPPCPAPELLGGPSVFLFPPKPKDTLMISRTPEVTCVVVDVSHEDPEVKFNWYVDGVEVHNAKTKPREEQYNSTCYRVVSVLTVLHQDWLNGKEYKCKVSNKALPAPIEKTISKAKGQPREPQVYVLPPSRDELTKNQVSLLCLVKGFYPSDIAVEWESNGQPENNYLTWPPVLDSDGSFFLYSKLTVDKSRWQQGNVFSCSVMHEALHNHYTQKSLSLSPG
chain 3: not shown

Experiments:
[1] = molecular target: T4, c-Met (UniProt P08581 25-1390, limits assumed); test: flow cytometry on EBC-1 cells, apparent Kd
T4 construct: whole, on cells; Target on cells
T4 sequence (P08581 25-1390 limits assumed): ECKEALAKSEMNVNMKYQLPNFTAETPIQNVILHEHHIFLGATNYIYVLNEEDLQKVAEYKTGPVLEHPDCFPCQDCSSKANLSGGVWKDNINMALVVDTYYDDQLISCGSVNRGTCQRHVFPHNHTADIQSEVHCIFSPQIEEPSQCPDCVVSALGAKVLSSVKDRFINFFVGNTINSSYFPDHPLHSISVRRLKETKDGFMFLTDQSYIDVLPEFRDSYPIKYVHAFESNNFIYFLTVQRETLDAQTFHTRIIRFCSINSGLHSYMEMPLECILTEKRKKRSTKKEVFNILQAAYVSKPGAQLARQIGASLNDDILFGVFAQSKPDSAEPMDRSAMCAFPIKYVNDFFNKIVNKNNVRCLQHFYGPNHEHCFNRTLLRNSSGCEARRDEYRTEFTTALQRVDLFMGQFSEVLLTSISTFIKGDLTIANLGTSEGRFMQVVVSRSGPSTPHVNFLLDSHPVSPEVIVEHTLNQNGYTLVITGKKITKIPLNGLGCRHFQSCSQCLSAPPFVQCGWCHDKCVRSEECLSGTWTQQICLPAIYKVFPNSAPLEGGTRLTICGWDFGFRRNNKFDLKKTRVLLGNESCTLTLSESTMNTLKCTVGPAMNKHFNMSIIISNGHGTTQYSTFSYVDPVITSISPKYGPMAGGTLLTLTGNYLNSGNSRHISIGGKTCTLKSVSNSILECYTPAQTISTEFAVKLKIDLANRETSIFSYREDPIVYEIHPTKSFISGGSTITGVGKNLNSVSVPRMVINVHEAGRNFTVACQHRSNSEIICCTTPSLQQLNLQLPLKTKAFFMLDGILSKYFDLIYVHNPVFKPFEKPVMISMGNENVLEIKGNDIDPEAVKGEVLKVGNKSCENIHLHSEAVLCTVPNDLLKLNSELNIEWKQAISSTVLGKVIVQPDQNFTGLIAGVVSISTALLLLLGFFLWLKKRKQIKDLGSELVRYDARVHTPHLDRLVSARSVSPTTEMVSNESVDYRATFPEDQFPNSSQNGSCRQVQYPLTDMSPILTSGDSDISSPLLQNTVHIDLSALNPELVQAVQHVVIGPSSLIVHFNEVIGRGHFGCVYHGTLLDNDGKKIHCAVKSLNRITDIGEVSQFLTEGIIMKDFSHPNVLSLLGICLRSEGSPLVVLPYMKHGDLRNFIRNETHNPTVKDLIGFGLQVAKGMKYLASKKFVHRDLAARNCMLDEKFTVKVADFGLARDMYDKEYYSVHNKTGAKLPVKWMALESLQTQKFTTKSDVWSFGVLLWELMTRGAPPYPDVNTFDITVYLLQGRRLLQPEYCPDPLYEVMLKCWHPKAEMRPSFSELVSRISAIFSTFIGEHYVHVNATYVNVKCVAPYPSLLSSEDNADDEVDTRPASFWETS

[2] = molecular target: T4, c-Met; test: flow cytometry on EBC-1 cells, apparent Kd; remark: listed apart in the source
[3] = molecular target: T4, c-Met; test: flow cytometry on H292 cells, apparent Kd
[4] = molecular target: CD16a (FcγRIIIA), allelic form F158 (UniProt P08637 17-208); test: SPR, antibody captured on Protein A, FcγR injected
CD16a (FcγRIIIA), allelic form F158, sequence (P08637 17-208 limits assumed): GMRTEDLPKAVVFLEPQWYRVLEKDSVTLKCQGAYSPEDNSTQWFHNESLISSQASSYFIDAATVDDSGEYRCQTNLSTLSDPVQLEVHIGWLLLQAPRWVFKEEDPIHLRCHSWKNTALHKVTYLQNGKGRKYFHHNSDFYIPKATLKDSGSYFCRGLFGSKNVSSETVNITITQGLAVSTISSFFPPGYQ

[5] = molecular target: T5, CD16a (FcγRIIIA), allelic form V158 (UniProt P08637 17-208); test: SPR, antibody captured on Protein A, FcγR injected
T5 construct: also called CD16aV
T5 sequence (P08637 17-208 F176V limits assumed): as the sequence (P08637 17-208 limits assumed) above, with F160V counted along it

[6] = molecular target: T1, CD32b (FcγRIIB); test: SPR, antibody captured on Protein A, FcγR injected
[7] = molecular target: CD64a (FcγRI) (UniProt P12314 16-288, limits assumed); test: SPR, antibody captured on Protein A, FcγR injected
CD64a (FcγRI), sequence (P12314 16-288 limits assumed): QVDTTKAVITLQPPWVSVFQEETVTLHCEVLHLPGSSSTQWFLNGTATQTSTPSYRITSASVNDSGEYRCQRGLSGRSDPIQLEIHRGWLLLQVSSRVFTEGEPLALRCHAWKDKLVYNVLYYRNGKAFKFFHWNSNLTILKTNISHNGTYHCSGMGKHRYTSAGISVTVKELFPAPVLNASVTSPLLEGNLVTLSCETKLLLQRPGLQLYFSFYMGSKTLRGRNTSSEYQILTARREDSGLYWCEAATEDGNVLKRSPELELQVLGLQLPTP

[8] = molecular target: T2, CD32a (FcγRIIA), allelic form His131; test: SPR, antibody captured on Protein A, FcγR injected
[9] = molecular target: T3, CD32a (FcγRIIA), allelic form Arg131; test: SPR, antibody captured on Protein A, FcγR injected
[10] = molecular target: T4, c-Met; test: flow cytometry on BT-20 cells, apparent Kd
[11] = molecular target: T6, Human FcRn with a C-terminal biotin on the large subunit (Human, UniProt P55899 24-297; P61769 21-119, C-terminal biotin); test: SPR, FcRn captured, antibody injected, pH 5.9
T6 construct: Captured on neutravidin for SPR; also called neonatal Fc receptor

[12] = molecular target: T4, c-Met; test: flow cytometry on EBC-1 cells

Kd [1] [nM]	Kd [2] [nM]	Kd [3] [nM]	Kd [4] [nM]	Kd [5] [nM]	Kd [6] [nM]	Kd [7] [nM]	Kd [8] [nM]	Kd [9] [nM]	Kd [10] [nM]	Kd [11] [nM]	fold greater Kd against control v17427 [12] [fold]	Binder
0.14	0.1	0.02	1450	461	2630	0.0486	410	588	0.02	297		B1
	0.57					143				208	5	B2
